The text below walks through data of patent US20220010021A1 (Sanofi, published 2022).

Residue numbers refer to the chain shown, from its start.

Assay [1] addresses human FGFR1c + KLB receptor complex on HEK293 iLite FGF21 reporter cells (human, UniProt P11362 22-822; Q86Z14 1-1044). Put plainly: cell-based or functional assay.
In the next assay the target is T1, human beta-Klotho (KLB) (human, UniProt Q86Z14 53-997).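 Further: Anti-KLB antibodies captured on anti-human Fc CM5 chip, KLB injected as analyte, 180 s association and 1800 s dissociation, fitted to 1:1 binding model.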
T1 construct: bought protein; also called human KLB
T1 sequence (looked up): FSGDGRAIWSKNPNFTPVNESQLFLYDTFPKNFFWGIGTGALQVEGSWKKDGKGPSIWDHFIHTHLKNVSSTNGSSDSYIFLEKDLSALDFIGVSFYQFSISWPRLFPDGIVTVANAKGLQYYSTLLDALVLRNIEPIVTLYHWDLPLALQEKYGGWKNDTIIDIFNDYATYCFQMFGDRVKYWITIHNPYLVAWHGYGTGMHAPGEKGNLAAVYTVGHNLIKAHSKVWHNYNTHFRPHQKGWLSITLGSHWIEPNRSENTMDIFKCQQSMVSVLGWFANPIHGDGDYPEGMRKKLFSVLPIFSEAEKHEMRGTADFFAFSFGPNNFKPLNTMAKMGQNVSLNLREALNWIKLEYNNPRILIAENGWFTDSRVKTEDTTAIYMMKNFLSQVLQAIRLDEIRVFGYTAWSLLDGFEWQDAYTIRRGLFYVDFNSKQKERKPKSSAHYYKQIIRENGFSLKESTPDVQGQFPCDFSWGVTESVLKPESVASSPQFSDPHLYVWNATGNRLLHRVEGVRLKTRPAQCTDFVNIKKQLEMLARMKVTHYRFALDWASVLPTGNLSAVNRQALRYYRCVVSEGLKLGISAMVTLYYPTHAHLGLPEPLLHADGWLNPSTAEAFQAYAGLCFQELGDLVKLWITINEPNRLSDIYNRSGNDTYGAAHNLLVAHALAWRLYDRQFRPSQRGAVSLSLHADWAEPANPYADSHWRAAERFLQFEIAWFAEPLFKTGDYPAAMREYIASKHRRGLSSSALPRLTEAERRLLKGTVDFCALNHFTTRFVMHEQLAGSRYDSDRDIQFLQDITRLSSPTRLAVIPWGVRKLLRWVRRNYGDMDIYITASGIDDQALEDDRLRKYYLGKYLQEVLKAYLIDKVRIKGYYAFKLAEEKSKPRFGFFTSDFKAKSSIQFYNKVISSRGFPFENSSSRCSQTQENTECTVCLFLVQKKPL
The assay can be described thus: SPR.

Sequence of human FGFR1c + KLB receptor complex on HEK293 iLite FGF21 reporter cells (P11362 22-822, chain 1 of 2): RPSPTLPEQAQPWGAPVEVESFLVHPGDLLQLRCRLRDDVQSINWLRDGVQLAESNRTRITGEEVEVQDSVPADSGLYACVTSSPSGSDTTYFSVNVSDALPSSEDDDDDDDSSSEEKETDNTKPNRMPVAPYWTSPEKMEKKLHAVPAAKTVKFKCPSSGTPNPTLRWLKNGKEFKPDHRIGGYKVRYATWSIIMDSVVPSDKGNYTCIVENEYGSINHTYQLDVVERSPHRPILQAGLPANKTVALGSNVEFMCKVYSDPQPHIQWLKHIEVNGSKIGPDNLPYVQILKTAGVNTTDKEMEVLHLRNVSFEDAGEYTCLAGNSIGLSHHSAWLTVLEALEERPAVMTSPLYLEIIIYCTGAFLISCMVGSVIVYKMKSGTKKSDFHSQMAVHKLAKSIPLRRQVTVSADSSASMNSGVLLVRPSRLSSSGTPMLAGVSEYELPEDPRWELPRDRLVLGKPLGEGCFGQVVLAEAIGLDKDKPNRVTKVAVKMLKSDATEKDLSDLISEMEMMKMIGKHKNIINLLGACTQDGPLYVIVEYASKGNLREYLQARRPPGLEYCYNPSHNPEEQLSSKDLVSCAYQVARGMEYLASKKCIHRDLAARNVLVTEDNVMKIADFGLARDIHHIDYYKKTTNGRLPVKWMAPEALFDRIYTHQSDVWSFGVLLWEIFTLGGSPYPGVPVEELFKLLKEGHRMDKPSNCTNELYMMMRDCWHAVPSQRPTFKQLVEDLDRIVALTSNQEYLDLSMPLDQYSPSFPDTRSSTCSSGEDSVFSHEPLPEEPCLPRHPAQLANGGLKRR
Sequence of human FGFR1c + KLB receptor complex on HEK293 iLite FGF21 reporter cells (Q86Z14 whole entry, chain 2 of 2): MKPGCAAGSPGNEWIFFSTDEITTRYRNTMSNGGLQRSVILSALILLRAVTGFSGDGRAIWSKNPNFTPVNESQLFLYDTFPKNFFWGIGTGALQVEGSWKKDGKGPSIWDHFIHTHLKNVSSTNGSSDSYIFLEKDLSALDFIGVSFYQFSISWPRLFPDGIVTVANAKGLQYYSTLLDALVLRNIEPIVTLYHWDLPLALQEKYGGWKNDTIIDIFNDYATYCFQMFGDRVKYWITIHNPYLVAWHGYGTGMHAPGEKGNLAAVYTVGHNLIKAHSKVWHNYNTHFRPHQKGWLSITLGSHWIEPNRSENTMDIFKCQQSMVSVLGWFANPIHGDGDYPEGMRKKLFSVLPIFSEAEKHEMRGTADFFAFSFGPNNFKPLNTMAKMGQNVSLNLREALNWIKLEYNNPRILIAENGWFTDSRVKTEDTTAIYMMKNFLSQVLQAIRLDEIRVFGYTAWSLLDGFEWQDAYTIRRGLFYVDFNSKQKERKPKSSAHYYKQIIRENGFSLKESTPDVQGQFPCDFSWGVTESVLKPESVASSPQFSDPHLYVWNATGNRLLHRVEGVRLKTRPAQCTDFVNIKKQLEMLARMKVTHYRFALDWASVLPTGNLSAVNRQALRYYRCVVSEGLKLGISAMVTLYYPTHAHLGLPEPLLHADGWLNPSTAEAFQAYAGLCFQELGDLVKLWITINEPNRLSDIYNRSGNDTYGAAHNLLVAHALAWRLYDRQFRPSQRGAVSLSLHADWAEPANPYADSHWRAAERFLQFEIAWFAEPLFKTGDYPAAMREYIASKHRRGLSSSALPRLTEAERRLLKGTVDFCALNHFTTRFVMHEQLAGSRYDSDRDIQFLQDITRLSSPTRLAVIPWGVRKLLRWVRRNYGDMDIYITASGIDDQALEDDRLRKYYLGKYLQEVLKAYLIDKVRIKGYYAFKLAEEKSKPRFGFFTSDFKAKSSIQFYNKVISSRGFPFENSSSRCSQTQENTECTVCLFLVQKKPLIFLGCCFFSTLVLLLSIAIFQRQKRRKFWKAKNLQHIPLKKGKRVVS

B1: Ab0187 (antibody, IgG4, V domains shown)
VH: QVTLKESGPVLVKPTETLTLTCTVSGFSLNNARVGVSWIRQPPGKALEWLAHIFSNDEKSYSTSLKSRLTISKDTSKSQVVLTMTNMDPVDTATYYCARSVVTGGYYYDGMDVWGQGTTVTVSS
VL: SYVLTQPPSVSVAPGQTARITCGGSNIGSESVHWYQQKPGQAPVLVVYDDSDRPSGIPERFSGSNSGNTATLTISRVEAGDEADYYCQVWDGNSDHVVFGGGTKLTVLG
notes: IgG4 PE
On to B1, for which, in assay [1], the EC50 was found to be 0.04 nM and the Emax worked out at 2780%. Moreover, the koff with human beta-Klotho (KLB) was 0.000156 s⁻¹.

B2: Ab0223 (antibody, IgG4, V domains shown)
VH: not shown
VL: B1 VL with S25N, D49S
notes: IgG4 PE
B2: in assay [1], the EC50 was 0.06 nM and the Emax is 2050%. The molecule also showed a koff with human beta-Klotho (KLB) of 0.00024 s⁻¹.

B3: Ab0216 (antibody, IgG4, V domains shown)
VH: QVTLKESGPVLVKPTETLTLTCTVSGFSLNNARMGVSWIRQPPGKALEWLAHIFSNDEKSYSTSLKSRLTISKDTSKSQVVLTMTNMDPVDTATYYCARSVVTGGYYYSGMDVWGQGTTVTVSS
VL: B1 VL with S25N, D49Y
notes: IgG4 PE
In the case of B3, in assay [1], the EC50 was found to be 0.27 nM and the Emax is 1180%. This molecule also showed an off-rate (koff) with human beta-Klotho (KLB) of 0.00984 s⁻¹.

B4: Ab0215 (antibody, IgG4, V domains shown)
VH: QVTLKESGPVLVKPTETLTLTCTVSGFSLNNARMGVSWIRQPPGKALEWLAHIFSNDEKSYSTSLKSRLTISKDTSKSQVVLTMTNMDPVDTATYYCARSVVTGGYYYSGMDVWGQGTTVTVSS
VL: B1 VL
notes: IgG4 PE
On to B4, for which, in assay [1], the EC50 stood at 0.04 nM and the Emax was determined as 2000%. In the assay with human beta-Klotho (KLB), this molecule registered an off-rate (koff) of 0.00125 s⁻¹.

B5: Ab0196 (antibody, IgG4, V domains shown)
VH: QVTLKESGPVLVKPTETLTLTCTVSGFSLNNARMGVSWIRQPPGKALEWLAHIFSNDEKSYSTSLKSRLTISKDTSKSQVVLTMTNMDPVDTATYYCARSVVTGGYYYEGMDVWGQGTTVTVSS
VL: B1 VL with S25N, D50E
notes: IgG4 PE
In the case of B5, in assay [1], the EC50 is 0.12 nM and the Emax was determined as 2050%. This molecule also had a koff in the assay with human beta-Klotho (KLB) of 0.00194 s⁻¹.

B6: Ab0205 (antibody, IgG4, V domains shown)
VH: QVTLKESGPVLVKPTETLTLTCTVSGFSLNNARVGVSWIRQPPGKALEWLAHIFSNDEKSYSTSLKSRLTISKDTSKSQVVLTMTNMDPVDTATYYCARSVVTGGYYYEGMDVWGQGTTVTVSS
VL: B1 VL with S25N, N93E
notes: IgG4 PE
For the molecule B6, in assay [1], the EC50 was determined as 0.02 nM and the Emax is 2120%. The off-rate constant (koff) with human beta-Klotho (KLB) was 0.000334 s⁻¹.

B7: Ab0198 (antibody, IgG4, V domains shown)
VH: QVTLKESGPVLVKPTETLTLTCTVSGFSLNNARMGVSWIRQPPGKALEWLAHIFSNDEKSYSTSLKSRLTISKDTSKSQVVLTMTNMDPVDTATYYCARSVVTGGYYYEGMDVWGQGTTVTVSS
VL: B1 VL with S25N, N93E
notes: IgG4 PE
With B7, in assay [1], the concentration for a half-maximal effect (EC50) amounted to 0.05 nM and the Emax was determined as 2770%. In the assay with human beta-Klotho (KLB), this molecule had an off-rate constant (koff) of 0.000346 s⁻¹.

B8: Ab0188 (antibody, IgG4, V domains shown)
VH: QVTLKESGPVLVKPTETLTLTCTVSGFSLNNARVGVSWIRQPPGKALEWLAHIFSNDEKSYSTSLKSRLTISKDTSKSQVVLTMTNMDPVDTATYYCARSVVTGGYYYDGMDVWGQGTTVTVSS
VL: B1 VL with S25N, D49Y
notes: IgG4 PE
As to B8, in assay [1], the EC50 came to 0.06 nM and the Emax turned out to be 2410%. In the assay with human beta-Klotho (KLB), the koff was 0.00084 s⁻¹.

B9: Ab0212 (antibody, IgG4, V domains shown)
VH: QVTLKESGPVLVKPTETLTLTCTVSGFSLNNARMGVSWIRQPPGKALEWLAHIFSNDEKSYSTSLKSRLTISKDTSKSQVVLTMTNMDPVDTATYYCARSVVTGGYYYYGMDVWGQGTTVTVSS
VL: B1 VL with S25N, N93E
notes: IgG4 PE
Turning to B9, in assay [1], the EC50 came out at 0.07 nM and the Emax was found to be 1640%. In addition, the koff in the assay with human beta-Klotho (KLB) is 0.00185 s⁻¹.

B10: Ab0191 (antibody, IgG4, V domains shown)
VH: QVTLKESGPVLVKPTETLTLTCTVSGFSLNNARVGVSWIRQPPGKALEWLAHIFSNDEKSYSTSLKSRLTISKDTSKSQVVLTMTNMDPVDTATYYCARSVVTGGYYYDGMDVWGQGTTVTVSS
VL: B1 VL with S25N, N93E
notes: IgG4 PE
On to B10, for which, in assay [1], the EC50 came out at 0.04 nM and the Emax turned out to be 2470%. Besides, the koff in the assay with human beta-Klotho (KLB) was found to be 0.000144 s⁻¹.

B11: Ab0203 (antibody, IgG4, V domains shown)
VH: B6 VH
VL: B1 VL with S25N, D50E
notes: IgG4 PE
As to B11, in assay [1], the EC50 came out at 0.05 nM and the Emax turned out to be 1600%. In the assay with human beta-Klotho (KLB), the koff came out at 0.00151 s⁻¹.

B12: Ab0225 (antibody, IgG4, V domains shown)
VH: not shown
VL: B1 VL with S25N, D49E
notes: IgG4 PE
With B12, in assay [1], the EC50 turned out to be 0.09 nM and the Emax amounted to 1790%. The molecule also displayed a koff with human beta-Klotho (KLB) of 0.00104 s⁻¹.

B13: Ab0194 (antibody, IgG4, V domains shown)
VH: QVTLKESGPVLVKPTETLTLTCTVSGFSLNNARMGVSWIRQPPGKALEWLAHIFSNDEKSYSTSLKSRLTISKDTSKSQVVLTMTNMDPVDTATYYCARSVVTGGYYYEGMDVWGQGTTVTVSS
VL: B1 VL
notes: IgG4 PE
As to B13, in assay [1], the EC50 worked out at 0.06 nM and the Emax is 2550%. This molecule gave a koff with human beta-Klotho (KLB) of 0.000402 s⁻¹.

B14: Ab0201 (antibody, IgG4, V domains shown)
VH: B6 VH
VL: B1 VL
notes: IgG4 PE
As to B14, in assay [1], the EC50 turned out to be 0.05 nM and the Emax was found to be 2490%. This molecule showed a koff in the assay with human beta-Klotho (KLB) of 0.000336 s⁻¹.

B15: Ab0208 (antibody, IgG4, V domains shown)
VH: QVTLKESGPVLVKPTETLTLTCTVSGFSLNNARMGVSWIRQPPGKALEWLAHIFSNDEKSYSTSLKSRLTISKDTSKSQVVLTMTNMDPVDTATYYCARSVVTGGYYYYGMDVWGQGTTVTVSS
VL: B1 VL
notes: IgG4 PE
Take B15: in assay [1], the EC50 is 0.27 nM and the Emax was 1270%. In the assay with human beta-Klotho (KLB), this molecule yielded a koff of 0.0021 s⁻¹.

B16: Ab0221 (antibody, IgG4, V domains shown)
VH: not shown
VL: B1 VL with S25A
notes: IgG4 PE
B16: in assay [1], the half-maximal effective concentration (EC50) turned out to be 0.09 nM and the maximum response (Emax) was 2000%. Besides, the koff with human beta-Klotho (KLB) was 0.00011 s⁻¹.

B17: Ab0189 (antibody, IgG4, V domains shown)
VH: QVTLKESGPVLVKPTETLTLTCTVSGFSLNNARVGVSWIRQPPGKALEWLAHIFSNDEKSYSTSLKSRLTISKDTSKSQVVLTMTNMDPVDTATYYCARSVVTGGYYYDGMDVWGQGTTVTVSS
VL: B1 VL with S25N, D50E
notes: IgG4 PE
For the molecule B17, in assay [1], the EC50 stood at 0.06 nM and the maximal response (Emax) is 2760%. This molecule also displayed a koff with human beta-Klotho (KLB) of 0.000387 s⁻¹.

B18: Ab0202 (antibody, IgG4, V domains shown)
VH: B6 VH
VL: B1 VL with S25N, D49Y
notes: IgG4 PE
Regarding B18, in assay [1], the EC50 stood at 0.07 nM and the Emax stood at 1510%. This molecule also showed a koff with human beta-Klotho (KLB) of 0.00161 s⁻¹.

B19: Ab0190 (antibody, IgG4, V domains shown)
VH: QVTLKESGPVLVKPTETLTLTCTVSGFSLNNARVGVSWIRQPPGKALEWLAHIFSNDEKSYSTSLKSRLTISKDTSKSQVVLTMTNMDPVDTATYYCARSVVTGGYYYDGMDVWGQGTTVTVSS
VL: B1 VL with S25N, D91T
notes: IgG4 PE
For B19, in assay [1], the EC50 is 0.05 nM and the Emax amounted to 2370%. In the assay with human beta-Klotho (KLB), the koff amounted to 0.000195 s⁻¹.

B20: Ab0226 (antibody, IgG4, V domains shown)
VH: not shown
VL: B1 VL with S25N, D49T
notes: IgG4 PE
For B20, in assay [1], the EC50 came to 0.11 nM and the maximal effect (Emax) worked out at 1970%. The molecule also returned a koff with human beta-Klotho (KLB) of 0.00101 s⁻¹.

B21: Ab0219 (antibody, IgG4, V domains shown)
VH: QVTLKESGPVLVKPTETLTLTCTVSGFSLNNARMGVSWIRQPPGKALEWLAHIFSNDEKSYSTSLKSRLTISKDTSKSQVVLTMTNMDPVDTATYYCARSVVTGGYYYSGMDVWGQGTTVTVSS
VL: B1 VL with S25N, N93E
notes: IgG4 PE
Regarding B21, in assay [1], the EC50 was determined as 0.02 nM and the maximal response (Emax) is 2490%. The same molecule had a koff in the assay with human beta-Klotho (KLB) of 0.000915 s⁻¹.

B22: Ab0218 (antibody, IgG4, V domains shown)
VH: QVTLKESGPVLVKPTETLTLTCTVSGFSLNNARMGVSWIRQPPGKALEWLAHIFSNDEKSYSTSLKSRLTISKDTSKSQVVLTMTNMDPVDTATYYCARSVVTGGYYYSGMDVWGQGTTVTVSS
VL: B1 VL with S25N, D91T
notes: IgG4 PE
On to B22, for which, in assay [1], the EC50 came out at 2.13 nM and the Emax was 1060%. This molecule also displayed a koff with human beta-Klotho (KLB) of 0.00668 s⁻¹.

B23: Ab0222 (antibody, IgG4, V domains shown)
VH: not shown
VL: B1 VL with S25T
notes: IgG4 PE
With B23, in assay [1], the EC50 amounted to 0.13 nM and the Emax stood at 2020%. The koff in the assay with human beta-Klotho (KLB) was 0.000309 s⁻¹.

B24: Ab0195 (antibody, IgG4, V domains shown)
VH: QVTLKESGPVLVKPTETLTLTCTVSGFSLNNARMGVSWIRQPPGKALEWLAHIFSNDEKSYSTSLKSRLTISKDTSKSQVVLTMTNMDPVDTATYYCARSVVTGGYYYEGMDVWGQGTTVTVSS
VL: B1 VL with S25N, D49Y
notes: IgG4 PE
For the molecule B24, in assay [1], the EC50 came to 0.14 nM and the Emax came to 2030%. Besides, the koff with human beta-Klotho (KLB) came to 0.00267 s⁻¹.

B25: Ab0204 (antibody, IgG4, V domains shown)
VH: B6 VH
VL: B1 VL with S25N, D91T
notes: IgG4 PE
With B25, in assay [1], the EC50 came out at 0.04 nM and the Emax was 1420%. Moreover, in the assay with human beta-Klotho (KLB), the off-rate constant (koff) is 0.00133 s⁻¹.

B26: Ab0217 (antibody, IgG4, V domains shown)
VH: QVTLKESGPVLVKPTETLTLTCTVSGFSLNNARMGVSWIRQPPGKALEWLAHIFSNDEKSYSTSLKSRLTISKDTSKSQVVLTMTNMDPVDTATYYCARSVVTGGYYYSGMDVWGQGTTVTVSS
VL: B1 VL with S25N, D50E
notes: IgG4 PE
For the molecule B26, in assay [1], the EC50 was 0.07 nM and the Emax stood at 1970%. For the same molecule, in the assay with human beta-Klotho (KLB), the dissociation rate constant (koff) is 0.002 s⁻¹.

B27: Ab0197 (antibody, IgG4, V domains shown)
VH: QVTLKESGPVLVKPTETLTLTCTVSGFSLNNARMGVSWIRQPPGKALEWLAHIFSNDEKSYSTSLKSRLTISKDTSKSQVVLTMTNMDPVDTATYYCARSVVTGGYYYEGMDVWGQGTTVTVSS
VL: B1 VL with S25N, D91T
notes: IgG4 PE
For B27, in assay [1], the EC50 is 0.08 nM and the Emax worked out at 2000%. Besides, the koff with human beta-Klotho (KLB) came out at 0.00167 s⁻¹.

What is called EC50 is the midpoint of the concentration-response curve. The term Emax denotes the greatest response seen or fitted, relative to the assay's reference. One may read the koff as a measure of how fast the partners let go of each other. Lower therefore signals slow dissociation.
